Reference: paper PMC11580933 (bioRxiv, 2024)
Where no end group is shown, it is not given here.

T1: KTN1(991–1357) (human, UniProt Q86UP2 991-1357)
T1 sequence (looked up): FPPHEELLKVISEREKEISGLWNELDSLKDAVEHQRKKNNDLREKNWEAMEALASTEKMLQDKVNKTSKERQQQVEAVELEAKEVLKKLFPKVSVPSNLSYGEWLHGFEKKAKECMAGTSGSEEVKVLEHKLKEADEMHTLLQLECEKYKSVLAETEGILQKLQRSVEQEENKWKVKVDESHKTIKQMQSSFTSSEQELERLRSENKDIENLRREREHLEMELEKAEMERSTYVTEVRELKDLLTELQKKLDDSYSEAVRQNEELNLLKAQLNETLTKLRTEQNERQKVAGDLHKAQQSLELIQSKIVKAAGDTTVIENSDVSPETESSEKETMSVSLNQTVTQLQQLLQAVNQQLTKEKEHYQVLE

B1: GST::DLIC1(388–523) (domain or fragment, human, UniProt Q9Y6G9 388-523, looked up)
chain: PTAAGRPVDASPRVPGGSPRTPNRSVSSNVASVSPIPAGSKKIDPNMKAGATSEGVLANFFNSLLSKKTGSPGGPGVSGGSPAGGAGGGSSGLPPSTKKSGQKPVLDVHAELDRITRKPVTVSPTTPTSPTEGEAS
B2: GST::KIF5C(807–956) (domain or fragment)
chain: not shown

How the values were obtained:
CDR2(1–146) = CDR2(1–146) (human, UniProt Q01850 1-146); experiment: SEC
KTN1(991–1357) [1] = biological target: T1, KTN1(991–1357); experiment: SEC
KTN1(991–1357) [2] = biological target: T1, KTN1(991–1357); experiment: pull-down

CDR2(1–146), sequence (Q01850 1-146): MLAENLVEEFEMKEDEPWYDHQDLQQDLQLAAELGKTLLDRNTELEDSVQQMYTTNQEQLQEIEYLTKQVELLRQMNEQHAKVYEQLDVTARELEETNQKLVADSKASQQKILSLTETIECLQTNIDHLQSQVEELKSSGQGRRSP

| Binder | binding result (KTN1(991–1357) [1]) | also measured |
| --- | --- | --- |
| B1 |  | binding result (CDR2(1–146)): binds |
| EPVSSPTTPPEYKALFKEIFSCIKKTKQEIDEQRTKYRSLSSHS (domain or fragment, human, UniProt Q01850 411-454, looked up) [GST::CDR2(411–454)] | binds |  |
| {GST}-NGPVAGASRQENGASVILRDIARARENIQKSLAGSSG (domain or fragment, human, UniProt P29692 30-66, looked up) [GST::eEF1Bβ(30–66)] | binds |  |
| B2 |  | binding result (KTN1(991–1357) [2]): binds |
